T1: HA-tagged CA R-ras mutant (P202A; P203A) (UniProt P10301 1-218, G38V | P202A | P203A)
T1 sequence: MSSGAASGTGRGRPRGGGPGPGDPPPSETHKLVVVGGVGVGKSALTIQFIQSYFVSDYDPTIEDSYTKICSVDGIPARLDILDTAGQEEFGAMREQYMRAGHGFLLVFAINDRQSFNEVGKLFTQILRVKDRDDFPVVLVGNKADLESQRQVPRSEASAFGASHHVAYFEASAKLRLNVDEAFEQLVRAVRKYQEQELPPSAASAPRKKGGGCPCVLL

T2: HA-tagged constitutively active R-ras (G38V) (UniProt P10301 1-218, G38V)
T2 sequence: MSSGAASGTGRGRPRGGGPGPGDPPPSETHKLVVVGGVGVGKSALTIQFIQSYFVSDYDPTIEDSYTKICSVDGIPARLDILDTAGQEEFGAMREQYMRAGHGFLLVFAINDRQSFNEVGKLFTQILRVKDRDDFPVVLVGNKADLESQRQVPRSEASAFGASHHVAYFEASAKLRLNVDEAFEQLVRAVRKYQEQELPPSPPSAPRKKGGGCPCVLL

T3: HA-tagged WT R-ras (UniProt P10301 1-218)
T3 sequence: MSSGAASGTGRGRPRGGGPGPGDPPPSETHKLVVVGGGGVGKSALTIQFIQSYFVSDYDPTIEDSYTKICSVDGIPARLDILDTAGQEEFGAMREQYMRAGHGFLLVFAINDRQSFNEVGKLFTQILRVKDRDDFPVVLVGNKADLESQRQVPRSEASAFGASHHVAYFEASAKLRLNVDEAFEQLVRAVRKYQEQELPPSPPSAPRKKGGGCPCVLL

T4: HA-tagged full-length FliI (UniProt Q9JJ28 1-1271)
T4 sequence: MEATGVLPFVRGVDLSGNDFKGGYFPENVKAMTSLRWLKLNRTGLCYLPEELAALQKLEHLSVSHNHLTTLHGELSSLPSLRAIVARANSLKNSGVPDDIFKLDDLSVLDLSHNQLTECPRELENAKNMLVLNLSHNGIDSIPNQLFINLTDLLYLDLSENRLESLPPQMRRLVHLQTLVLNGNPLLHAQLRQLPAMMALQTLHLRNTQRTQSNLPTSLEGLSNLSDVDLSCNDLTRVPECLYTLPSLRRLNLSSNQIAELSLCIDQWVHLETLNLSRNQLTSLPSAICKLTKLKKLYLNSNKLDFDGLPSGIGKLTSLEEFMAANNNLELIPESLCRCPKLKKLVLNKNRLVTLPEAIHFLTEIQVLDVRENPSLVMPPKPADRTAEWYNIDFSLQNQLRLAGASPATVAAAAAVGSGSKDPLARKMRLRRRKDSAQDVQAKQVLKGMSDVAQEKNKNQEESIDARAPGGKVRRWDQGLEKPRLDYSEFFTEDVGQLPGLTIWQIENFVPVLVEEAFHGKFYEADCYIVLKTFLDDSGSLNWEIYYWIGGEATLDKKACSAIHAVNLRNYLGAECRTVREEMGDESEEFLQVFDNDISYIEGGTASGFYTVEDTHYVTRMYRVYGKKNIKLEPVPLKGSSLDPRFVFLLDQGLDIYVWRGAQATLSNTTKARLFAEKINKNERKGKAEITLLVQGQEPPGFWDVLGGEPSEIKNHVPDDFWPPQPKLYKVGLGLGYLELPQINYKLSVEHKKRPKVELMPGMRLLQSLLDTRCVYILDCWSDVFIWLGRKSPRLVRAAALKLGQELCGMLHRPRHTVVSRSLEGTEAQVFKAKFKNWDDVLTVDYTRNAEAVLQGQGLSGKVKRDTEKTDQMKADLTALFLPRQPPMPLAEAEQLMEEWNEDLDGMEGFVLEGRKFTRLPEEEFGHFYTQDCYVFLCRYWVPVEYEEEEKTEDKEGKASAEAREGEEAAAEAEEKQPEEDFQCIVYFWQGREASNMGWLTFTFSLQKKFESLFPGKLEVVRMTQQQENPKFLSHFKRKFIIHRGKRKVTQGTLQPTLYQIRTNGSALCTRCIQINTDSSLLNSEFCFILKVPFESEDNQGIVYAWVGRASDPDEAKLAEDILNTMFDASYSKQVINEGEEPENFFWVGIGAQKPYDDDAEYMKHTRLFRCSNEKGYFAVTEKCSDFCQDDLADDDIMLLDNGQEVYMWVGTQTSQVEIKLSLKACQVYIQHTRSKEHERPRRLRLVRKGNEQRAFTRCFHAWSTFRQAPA


Legend:
Assay in all cases: co-IP
[1] = target: T1, HA-tagged CA R-ras mutant (P202A; P203A)
[2] = target: T2, HA-tagged constitutively active R-ras …
HA-tagged WT R-ras = target: T3, HA-tagged WT R-ras
HA-tagged FliI LRR = target: HA-tagged FliI LRR
[3] = target: T4, HA-tagged full-length FliI

fold reduction of association compared with CA R-ras [1] [fold] | fold association compared with DN R-ras [2] [fold] | fold association compared with DN R-ras (HA-tagged WT R-ras) [fold] | fold association compared with FliI GLD (HA-tagged FliI LRR) [fold] | fold association compared with FliI GLD [3] [fold] | Binder
4 | 3.5 | 2.5 |  |  | Flightless I (FliI), endogenous (natural protein) MEATGVLPFVRGVDLSGNDFKGGYFPENVKAMTSLRWLKLNRTGLCYLPEELAALQKLEHLSVSHNHLTTLHGELSSLPSLRAIVARANSLKNSGVPDDIFKLDDLSVLDLSHNQLTECPRELENAKNMLVLNLSHNGIDSIPNQLFINLTDLLYLDLSENRLESLPPQMRRLVHLQTLVLNGNPLLHAQLRQLPAMMALQTLHLRNTQRTQSNLPTSLEGLSNLSDVDLSCNDLTRVPECLYTLPSLRRLNLSSNQIAELSLCIDQWVHLETLNLSRNQLTSLPSAICKLTKLKKLYLNSNKLDFDGLPSGIGKLTSLEEFMAANNNLELIPESLCRCPKLKKLVLNKNRLVTLPEAIHFLTEIQVLDVRENPSLVMPPKPADRTAEWYNIDFSLQNQLRLAGASPATVAAAAAVGSGSKDPLARKMRLRRRKDSAQDVQAKQVLKGMSDVAQEKNKNQEESIDARAPGGKVRRWDQGLEKPRLDYSEFFTEDVGQLPGLTIWQIENFVPVLVEEAFHGKFYEADCYIVLKTFLDDSGSLNWEIYYWIGGEATLDKKACSAIHAVNLRNYLGAECRTVREEMGDESEEFLQVFDNDISYIEGGTASGFYTVEDTHYVTRMYRVYGKKNIKLEPVPLKGSSLDPRFVFLLDQGLDIYVWRGAQATLSNTTKARLFAEKINKNERKGKAEITLLVQGQEPPGFWDVLGGEPSEIKNHVPDDFWPPQPKLYKVGLGLGYLELPQINYKLSVEHKKRPKVELMPGMRLLQSLLDTRCVYILDCWSDVFIWLGRKSPRLVRAAALKLGQELCGMLHRPRHTVVSRSLEGTEAQVFKAKFKNWDDVLTVDYTRNAEAVLQGQGLSGKVKRDTEKTDQMKADLTALFLPRQPPMPLAEAEQLMEEWNEDLDGMEGFVLEGRKFTRLPEEEFGHFYTQDCYVFLCRYWVPVEYEEEEKTEDKEGKASAEAREGEEAAAEAEEKQPEEDFQCIVYFWQGREASNMGWLTFTFSLQKKFESLFPGKLEVVRMTQQQENPKFLSHFKRKFIIHRGKRKVTQGTLQPTLYQIRTNGSALCTRCIQINTDSSLLNSEFCFILKVPFESEDNQGIVYAWVGRASDPDEAKLAEDILNTMFDASYSKQVINEGEEPENFFWVGIGAQKPYDDDAEYMKHTRLFRCSNEKGYFAVTEKCSDFCQDDLADDDIMLLDNGQEVYMWVGTQTSQVEIKLSLKACQVYIQHTRSKEHERPRRLRLVRKGNEQRAFTRCFHAWSTFRQAPA
 |  |  | 4 | 4.6 | R-ras, endogenous (natural protein) MSSGAASGTGRGRPRGGGPGPRDPPPGETHKLVVVGGGGVGKSALTIQFIQSYFVSDYDPTIEDSYTKICTVDGIPARLDILDTAGQEEFGAMREQYMRAGNGFLLVFAINDRQSFNEVGKLFTQILRVKDRDDFPIVLVGNKADLENQRQVLRSEASSFSASHHMTYFEASAKLRLNVDEAFEQLVRAVRKYQEQELPPSPPSAPRKKDGGCPCVLL
